Measurements taken from US20100183625A1 (published 2010).

The binders below were run against T1, human plasma kallikrein (human, UniProt P03952 20-390; P03952 391-638) (assay: ELISA; signal on biotinylated plasma kallikrein divided by signal on streptavidin background).
T1 construct: also called pKal; human pKal
Source text: Abbreviations used: “T/B” is the ELISA signal obtained using of the “target” (biotinylated plasma kallikrein) divided by the ELISA signal of the “background” (streptavidin); both of which were coated on microtiter plates. “nd” is not determined. The symbol “q” refers to the amber suppressible stop codon (TAG), which is translated as glutamine (Q) in strains of E. coli such as the TG1 cells that were used to express the Fab fragments.

T1 sequence (P03952 20-390, chain 1 of 2): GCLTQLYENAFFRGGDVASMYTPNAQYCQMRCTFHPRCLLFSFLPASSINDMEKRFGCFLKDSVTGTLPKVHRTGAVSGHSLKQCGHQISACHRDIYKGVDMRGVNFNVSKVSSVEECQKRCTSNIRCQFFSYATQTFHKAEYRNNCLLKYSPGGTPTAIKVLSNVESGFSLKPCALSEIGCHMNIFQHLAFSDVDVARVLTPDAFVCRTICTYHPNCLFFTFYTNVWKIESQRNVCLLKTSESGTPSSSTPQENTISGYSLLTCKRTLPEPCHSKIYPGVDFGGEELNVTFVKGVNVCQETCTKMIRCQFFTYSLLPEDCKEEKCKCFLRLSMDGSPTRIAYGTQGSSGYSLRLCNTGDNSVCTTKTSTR
T1 sequence (P03952 391-638, chain 2 of 2): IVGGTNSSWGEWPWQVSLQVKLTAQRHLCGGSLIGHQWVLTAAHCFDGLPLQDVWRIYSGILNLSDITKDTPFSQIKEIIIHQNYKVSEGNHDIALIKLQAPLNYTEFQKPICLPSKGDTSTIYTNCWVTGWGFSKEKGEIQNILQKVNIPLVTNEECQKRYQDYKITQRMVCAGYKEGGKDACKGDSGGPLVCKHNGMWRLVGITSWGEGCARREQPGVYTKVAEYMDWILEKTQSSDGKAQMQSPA

Binder | ELISA (T/B) [T/B ratio]
M162-A04 (antibody, V domains shown) VH: EVQLLESGGGLVQPGGSLRLSCAASGFTFSHYIMMWVRQAPGKGLEWVSGIYSSGGITVYADSVKGRFTISRDNSKNTLYLQMNSLRAEDTAVYYCAYRRTGIPRRDAFDIWGQGTMVTVSS VL: DIQMTQSPSTLSASVGDRVTITCRASQSISSWLAWYQQKPGKAPNLLIYKASTLESGVPSRFSGSGSGTEFTLTISSLQPDDFATYYCQQYNTYWTFGQGTKVEIK | 11.4
M110-C12 (antibody, V domains shown) VH: EVQLLESGGGLVQPGGSLRLSCAASGFTFSYYEMDWVRQAPGKGLEWVSGISSSGGHTAYADSVKGRFTISRDNSKNTLYLQMNSLRAEDTATYYCARERRSSSRARYYYGMDVWGQGTTVTVSS VL: DIQMTQSPLSLSVTPGEPASISCRSSLSLLHSNGYNYLDWYVQRPGQSPQLLMYLSSTRASGVPDRFSGSGSGTDFTLEISRVEAEDVGVYYCMQPLETPPTFGGGTKVEIK | 2.4
M7-E07 (antibody, V domains shown) VH: EVQLLESGGGLVQPGGSLRLSCAASGFTFSWYLMIWVRQAPGKGLEWVSYIYPSGGFTYYADSVKGRFTISRDNSKNTLYLQMNSLRAEDMAVYYCARTEGPLSWGYGMDVWGQGTTVTVSS VL: not shown | 45.7
M27-E05 (antibody, V domains shown) VH: EVQLLESGGGLVQPGGSLRLSCAASGFTFSWYLMIWVRQAPGKGLEWVSYIYPSGGFTYYADSVKGRFTISRDNSKNTLYLQMNSLRAEDMAVYYCARTEGPLSWGYGMDVWGQGTTVTVSS VL: not shown | 41.3
M73-D06 (antibody, V domains shown) VH: EVQLLESGGGLVQPGGSLRLSCAASGFTFSRYEMYWVRQAPGKGLEWVSSISSSGGPTAYADSVKGRFTISRDNSKNTLYLQMNSLRAEDTAMYYCAKGTPKWELLLRSIYIENAFDIWSQGTMVTVSS VL: QSELTQPPSASETPSQRVTISCSGSSSNIGSNTVSWFQQLPGSAPRLLIYNDHRRPSGVPDRFSGSKSGTSASLVISGLQSQDEADYYCSAWDDSLNGVVFGGGTKLTVL | 4
M146-E12 (antibody, V domains shown) VH: EVQLLESGGGLVQPGGSLRLSCAASGFTFSRYIMHWVRQAPGKGLEWVSSISPSGGLTSYADSVKGRFTISRDNSKNTLYLQMNSLRAEDTAVYYCAREFENAYHYYYYGMDVWGQGTTVTVSS VL: DIQMTQSPSSLSASVGDRVTITCRASGDIGNALGWYQQKPGKAPRLLISDASTLQSGVPLRFSGSGSGTEFTLTISSLQPEDFATYYCLQGYNYPRTFGQGTKLEIR | 40.6
M38-F02 (antibody, V domains shown) VH: EVQLLESGGGLVQPGGSLRLSCAASGFTFSYYMMVWVRQAPGKGLEWVSYIYSSGGHTVYADSVKGRFTISRDNSKNTLYLQMNSLRAEDTAVYYCARDLFLYDFWSKGAFDIWGQGTMVTVSS VL: QSVLTQPPSVSVSPSQTASITCSGEKLGDKYVSWYQQKPGQSPSLVICEDSRRPSGIPERFSGSNSGNTATLTISGAQPMDEADYYCQAWDSSTAIFGPGTKVTVL | 33.5
M8-A09 (antibody, V domains shown) VH: EVQLLESGGGLVQPGGSLRLSCAASGFTFSTYFMLWVRQAPGKGLEWVSSIYPSGGNTVYADSVKGRFTISRDNSKNTLYLQMNSLRAEDTAVYYCARAASPVRNYYYYGMDVWGQGTTVTVSS VL: QCELTQPPSESVSPGQTANITCSGDKLGNKYAYWYQQKPGQSPVLVIYQDNNRPSGIPERFSGSNSGNTATLTISGTQAIDEANYYCQAWDSRTVVFGGGTKLTVL | 5.4

Second part, the binder after the results:

ELISA (T/B) [T/B ratio] | Binder
11.1 | M35-G04 (antibody, V domains shown) VH: EVQLLESGGGLVQPGGSLRLSCAASGFTFSYYHMSWVRQAPGKGLEWVSVISPSGGSTKYADSVKGRFTISRDNSKNTLYLQMNSLRAEDTAVYYCARGGSSDYAWGSYRRPYYFDYWGQGTLVTVSS VL: DIQMTQSPATLSLSPGERATLSCRASQSVSSYLAWYQQKPGQAPRLLIYDASNRATGIPARFSGSGSGTDFTLTISSLEPEDFAVYYCQQRSNWPRGFTFGPGTKVDIK
6.2 | M145-D01 (antibody, V domains shown) VH: EVQLLESGGGLVQPGGSLRLSCAASGFTFSYYHMSWVRQAPGKGLEWVSVISPSGGSTKYADSVKGRFTISRDNSKNTLYLQMNSLRAEDTAVYYCARGGSSDYAWGSYRRPYYFDYWGQGTLVTVSS VL: DIQMTQSPATLSLSPGERATLSCRASQSVSSYLAWYQQKPGQAPRLLIYDASNRATGIPARFSGSGSGTDFTLTISSLEPEDFAVYYCQQRSNWPRGFTFGPGTKVDIK
41.8 | M161-C11 (antibody, V domains shown) VH: EVQLLESGGGLVQPGGSLRLSCAASGFTFSDYAMKWVRQAPGKGLEWVSSISSSGGVTQYADSVKGRFTISRDNSKNTLYLQMNSLRAEDTAVYYCAREEDYSSSWYSRRFDYYYGMDVWGQGTTVTVSS VL: QSALTQPPSVSVSPGQTASITCSGDKLGDKYVSWYQQRPGQSPVLVIYQDTKRPSGIPERFSGSNSGNTATLTISGTQAVDEADYYCQAWDSSTYVFGGGTKVTVL
28 | M41-A11 (antibody, V domains shown) VH: EVQLLESGGGLVQPGGSLRLSCAASGFTFSHYRMSWVRQAPGKGLEWVSSIYPSGGRTVYADSVKGRFTISRDNSKNTLYLQMNSLRAEDTAVYYCAKDKFEWRLLFRGIGNDAFDIWGQGTMVTVSS VL: QSVLTQPPSVSVSPGQTASITCSGDKLGDKYTSWYQQRPGQSPVLVIYQDIKRPSGIPERFSGSNSGNTATLTISGTQAMDEADYYCQAWDSPNARVFGSGTKVTVL
40 | M145-D11 (antibody, V domains shown) VH: EVQLLESGGGLVQPGGSLRLSCAASGFTFSHYRMSWVRQAPGKGLEWVSSIYPSGGRTVYADSVKGRFTISRDNSKNTLYLQMNSLRAEDTAVYYCAKDKFEWRLLFRGIGNDAFDIWGQGTMVTVSS VL: QSVLTQPPSVSVSPGQTASITCSGDKLGDKYTSWYQQRPGQSPVLVIYQDIKRPSGIPERFSGSNSGNTATLTISGTQAMDEADYYCQAWDSPNARVFGSGTKVTVL
19 | M152-A12 (antibody, V domains shown) VH: EVQLLESGGGLVQPGGSLRLSCAASGFTFSPYFMGWVRQAPGKGLEWVSGIGPSGGSTTYADSVKGRFTISRDNSKNTLYLQMNSLRAEDTAVYYCAREGPPYSSGWYRGLRQYHFDYWGQGTLVTVSS VL: DIQMTQSPSSLSASVGDRVTITCRASQSISSYLSWYQQRPGKAPNLLIYAASSLQSGVPSRFSGSGSGTDFTLTISSLQPEDFATYYCQQSISIPRTFGQGTKVEVK
29.9 | M142-H08 (antibody, V domains shown) VH: EVQLLESGGGLVQPGGSLRLSCAASGFTFSAYSMIWVRQAPGKGLEWVSYIRPSGGRTTYADSVKGRFTISRDNSKNTLYLQMNSLRAEDTAVYYCARGGLLLWFRELKSNYFDYWGQGTLVTVSS VL: DIQMTQSPSSLSAFVGDRVTITCRASQPIDNYLNWYHQKPGKAPKLLIYAASRLQSGVPSRLSGSGFGTDFTLTISSLQPEDFGNYYCQQSYTVPYTFGGGTKVEIR
38.3 | M160-G12 (antibody, V domains shown) VH: EVQLLESGGGLVQPGGSLRLSCAASGFTFSHYLMTWVRQAPGKGLEWVSYISPSGGHTIYADSVKGRFTISRDNSKNTLYLQMNSLRAEDTAVYYCARVARGIAARSRTSYFDYWGQGTLVTVSS VL: DIQMTQSPSFLSASVGDRVTITCRASQGISSYLAWYQQKPGKAPKLLIYAASTLQSGVPSRFSGSGSGTEFTLTISSLQPEDFATYYCQQLNSYPLTFGGGTKVEIK
